Changes are numbered by the printed parent chain. Names may count otherwise.

T1: DIP-α (Drosophila melanogaster)
T1 chain: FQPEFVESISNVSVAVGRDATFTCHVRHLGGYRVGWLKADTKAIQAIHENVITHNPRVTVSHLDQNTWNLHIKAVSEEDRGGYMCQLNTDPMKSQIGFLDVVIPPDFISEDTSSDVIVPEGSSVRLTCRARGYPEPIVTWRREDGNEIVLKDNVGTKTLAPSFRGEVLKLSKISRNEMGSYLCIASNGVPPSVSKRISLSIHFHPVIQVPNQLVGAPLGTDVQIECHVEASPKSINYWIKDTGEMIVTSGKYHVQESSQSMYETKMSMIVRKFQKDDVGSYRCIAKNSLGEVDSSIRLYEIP

B1: Dpr10 V31K Q29E (domain or fragment)
chain: YQRQSVSNNNHNNAEAKPTHAPPSHYPHGHKWNEPYFDLTMPRNITSLVGKSAYLGCRVKHLGNKTVAWIRHRDLHILTVGTYTYTTDQRFQTSYHRDIDEWTLQIKWAQQRDAGVYECQISTEPKRSYSVNLNIVDLIDAETSDIMQQYYNDDAFYIAENRVYQSSNDEFAGMFGPIQTVAVPTATILGGPDLYVDKGSTINLTCIIKFSPEPPTHIFWYHQDKVLSEETSGGRLKFKTIKSEETKSILLIYDADLLHSGKYSCYPSNTEIASIR
B2: Dpr10 (domain or fragment)
chain: B1 chain with E124Q, K126V
B3: Dpr10 V31K (domain or fragment)
chain: B1 chain with E124Q
B4: Dpr11 K31V (domain or fragment)
chain: PYLDGYATSNVTTQIGTHAYLPCRVKQLGNKSVSWIRLRDGHILTVDRAVFIADQRFLAIKQPDKYWTLQIKYVQARDAGSYECQVSTEPVVSARVQLQVVVPRTEILGEPDRYVKAGSNVVLRCIVRGALEPPTFIMWYHGAEQLAADSRRHRTQLDPNLPEASGEGQSTIGSLIIESAKKRDTGNYTCSPSNSPSATVT
B5: Dpr11 K31V,E29Q (domain or fragment)
chain: B4 chain with E89Q
B6: Dpr11 (domain or fragment)
chain: B4 chain with V91K

The target of this test is T1, DIP-α. As to the kind of experiment: SPR. On the technique in general: In SPR one partner is held on a chip, and binding of the other changes the refractive index at the surface.
For orientation: Kd means a measure of binding affinity in units of concentration. Regarding B1, binding was put at a Kd of 29.2 µM.
The figure for B2 is 1.3 µM; for B3 it is 11.3 µM; for B4 it is greater than 300 µM.
Turning to B5, the equilibrium dissociation constant (Kd) was greater than 300 µM.
For B6 the value was greater than 500 µM.

Source of the values: PMC7195491 (2020).
